Results taken from patent US11856945B2, “Methods and systems for preparing and preserving a biological sample” (Washington University, priority 2017, dated 2024).

Columns and labels:
[1] = tested on: streptozotocin-induced type 1 diabetic mice; assay: Blood glucose in streptozotocin-induced type 1 diabetic mice; type: in vivo; conditions: 1 mg/kg intravenous
Method: After establishing the chemical stability and structural integrity of ZIF-8 encapsulated insulin, the biological activity of ZIF-8 encapsulated insulin was assessed by measuring the effectiveness of ZIF-8 encapsulated insulin for treating hyperglycemia in streptozotocin-induced type 1 diabetic mice. […] The ZIF-8 encapsulated insulin was released by adding EDTA before injection. The blood glucose concentrations of mice in each group were then monitored for 12 h. […] Histological evaluation of the major organs of the mice at 5 days after intravenous injection of PBS or stabilized insulin. […] The ZIF-8 encapsulated insulin was released by adding EDTA before injection. Results are the mean±standard deviation (n=3). […] The partial loss of insulin bioactivity here could be attributed to the loss of structure integrity of insulin at elevated temperatures as confirmed by the aforementioned ELISA, CD and HPLC experiments.
Mice were anesthetized with 2% isoflurane.

[2] = Preservation of CA-125 spiked in fresh blood under temperature fluctuations and shipping; type: physicochemical; conditions: plasma from spiked fresh blood, 20-fold diluted; 8 days 25/40° C. temperature cycles or 10 days shipping
Method: The applicability of this technique was assessed to preserve blood samples drawn in resource-limited settings. Unlike serum and plasma, in some embodiments the presence of a large quantity of whole cells (red and white blood cells and platelets) in blood affects ZIF-8 encapsulation of target protein biomarkers. Considering that in some embodiments ZIF-8 also forms a thick layer on cell surfaces56 and lead to incomplete encapsulation or preservation of target protein biomarkers, it is important to remove blood cells through centrifugation before ZIF-8 encapsulation of protein biomarkers. Unfortunately, centrifuge is typically inaccessible in resource-limited settings considering that conventional systems are bulky, expensive and electrically-powered. A hand-powered centrifuge was implemented that was able to separate plasma from whole blood within 10 minutes for subsequent ZIF-8 encapsulation (FIG. 19A). In order to mimic fresh whole blood samples from ovarian cancer patients, four different concentrations of CA-125 within pathological-relevant range from 25 ng/ml-25 μg/ml were spiked into fresh blood from healthy volunteers.58-59 Then the plasma samples (heparin-anticoagulated) were separated from blood and diluted 20-fold for ZIF-8 encapsulation. To assess the preservation efficacy of this approach under unregulated conditions, two sets of experiments were devised. […]

[3] = Preservation of CA-125 spiked in serum/plasma dried on paper (ELISA); type: physicochemical
Description: Further attention was given to blood (and components serum and plasma), the most common biospecimens in biological and clinical studies. Compared to urine, serum or plasma represents a more complex biological matrix due to the presence of large amount of various proteins such as albumin, globulins and fibrinogen. Before proceeding to assess the preservation of specific protein biomarker, it was confirmed that different types of proteins are extracted from the paper substrates containing dried serum with or without ZIF-8 encapsulation using sodium dodecyl sulfate-polyacrylamide gel electrophoresis (SDS-PAGE), indicating the potential of this technique in preserving multiple protein biomarkers simultaneously in serum or plasma (FIG. 16). […] Lane a, c and e are corresponding to eluate of volunteer #1, #2 and #3 serum without ZIF-8 encapsulation, respectively. Lane b, d and f are corresponding to eluate of volunteer #1, #2 and #3 serum with ZIF-8 encapsulation, respectively. CA-125, a serum biomarker for ovarian cancer, was used as the model protein and spiked into serum from healthy people. Considering extremely high concentration of serum proteins, the serum was first diluted (5-, 10- or 20-fold) before spiking CA-125 and adding ZIF-8 precursors to ensure ZIF-8 formation and more complete encapsulation. The CA-125 spiked serum samples, both with and without ZIF-8 encapsulation, were dried on paper and stored at 40° C. for 1 week. […] The poor preservation of CA-125 from 5- and 10-fold diluted serum was due to the incomplete ZIF-8 formation and encapsulation (FIG. 18). The encapsulation efficiency was calculated by subtracting the remaining CA-125 amount in the supernatant after encapsulation and centrifugation (concentration measured by ELISA) from the total CA-125 amount. […] Subsequently, CA-125 was spiked into three different matrices that represent typical blood-derived biospecimens (serum, heparin-anticoagulated plasma and EDTA-anticoagulated plasma from healthy people with 20-fold dilution), dried on paper substrates with and without ZIF-8 encapsulation, and subsequently stored at 25, 40, or 60° C. for different durations of time. CA-125 concentration in the eluate was quantified using sandwich ELISA. […] (FIG. 17D-F). FIGS. 17D-F show preservation efficacy of CA-125 spiked in serum, heparin-plasma or EDTA-plasma on paper card at 25, 40 or 60° C. for different durations.
Sample preparation. NGAL-spiked artificial urine (50 μg/ml of NGAL, 25 μl) or patient urine (25 μl) was first mixed with 2-methylimidazole aqueous solution (12.5 μl) and then zinc acetate dihydrate aqueous solution (12.5 μl). The final concentrations of 2-methylimidazole after mixing were 320 mM, 160 mM, 80 mM and 40 mM. […]

[4] = Release of insulin from ZIF-8 encapsulation by EDTA; type: physicochemical; conditions: 30 mM zinc acetate with 120 mM 2-methylimidazole
Description: Elevated temperature is the primary detrimental condition during insulin transport and storage, an issue likely to be exacerbated by the increasing epidemic of diabetes in the developing countries, where refrigeration or “cold chain” facilities are not guaranteed. At high temperatures, insulin undergoes both physical (such as unfolding, non-native aggregation and fibrillation) and chemical degradations (such as deamidation, disulfide destruction and reshuffling). […] After 1 week, the ZIF-8 encapsulated insulin was released by adding ethylenediaminetetraacetic acid (EDTA) to dissociate the ZIF-8 crystals by breaking the coordination bonds between zinc and 2-methylimidazole (FIG. 25). The released insulin and unencapsulated insulin were then quantified by ELISA. The preservation efficacy (insulin recovery %) was calculated by comparing the recovered amount of insulin to the insulin amount prior to incubation. […] Compared to the optimal precursor concentrations, the low insulin recovery upon using 10 mM zinc acetate with 40 mM 2-methylimidazole is attributed to the incomplete encapsulation of insulin (FIG. 24). […] The insulin amount in the solution was measured by ELISA and compared with total insulin amount before encapsulation. […]

[5] = tested on: STZ-induced type 1 diabetic mice; conditions: mouse, in vivo
Method: STZ-induced male C57BL/6 (6-10 weeks) type 1 diabetic mice were purchased from Jackson Laboratory (USA). The blood glucose levels of mice were tested 1 day before administration by collecting blood (˜3 μL) from the tail vein and measuring using the Clarity GL2Plus glucose monitor (VWR, USA). The mice were randomly divided into four groups (3 mice each group) and intravenously injected via lateral tail vein with PBS solution, insulin stored at −20° C., ZIF-8 preserved insulin (dissociated by EDTA) and insulin alone stored at 40° C. for 1 week, respectively. The insulin dose for each mouse was 1 mg/kg (125 μg/mL, ˜200 μL). The blood glucose level was measured from tail vein blood samples (˜3 μL) of mice at different time points (at 10, 20, 40, and 60 min, and once per hour afterward for the first 12 h in the day of administration). Mice were anesthetized with 2% isoflurane. The mice treated with ZIF-8 preserved insulin and PBS were sacrificed after 5 days administration, and major organs were collected and sliced for haematoxylin and eosin (H&E) staining.

[6] = Circular dichroism of insulin secondary structure; type: physicochemical
Method: To further confirm that ZIF-8 encapsulation preserves the insulin structure, circular dichroism (CD) spectroscopy was employed to characterize the secondary structure of insulin with and without ZIF-8 encapsulation after 1 week incubation at 40° C. (FIG. 26D). […] Inset: Secondary structure content of the three types of insulin obtained from the CD spectra. […] FIG. 30 discloses the following: Left: CD spectra of pristine insulin prior to agitation, released insulin from ZIF-8 encapsulation after 48 h agitation at 200 rpm and insulin without ZIF-8 encapsulation after 48 h agitation at 200 rpm; Right: secondary structure content of the three types of insulin obtained from the CD spectra. […] FIG. 31 discloses the following: Left: CD spectra of pristine insulin prior to exposure to ethyl acetate, released insulin from ZIF-8 encapsulation after exposure to ethyl acetate for 6 h and insulin without ZIF-8 encapsulation after exposure to ethyl acetate for 6 h; and, right: secondary structure content of the three types of insulin obtained from the CD spectra. […]
Circular dichroism (CD) spectroscopy. […] The insulin recovered from various treatments was quantified by BCA assay and diluted to 100 μg/mL in PBS. The secondary structures of insulin (α-helical content, β-sheet content) were analyzed using CDPro software from CD spectra.

Substance: Insulin at −20° C.: unencapsulated insulin solution stored frozen at −20° C., the gold standard control
- time blood glucose maintained in the normoglycemic range [1]: 4 h
- blood glucose after return to hyperglycemic range ([1]; within 12 h): ~550 mg/dL

Substance: cancer antigen 125 [CA-125]
- CA-125 preservation [2]: 50-60%
- CA-125 preservation ([3]; 20-fold diluted serum, with ZIF-8 encapsulation, 40° C., one week): ~90%
- CA-125 preservation ([3]; serum, heparin-plasma and EDTA-plasma (20-fold dilution), 25° C., 4 weeks): ~50%
- CA-125 preservation ([3]; serum, heparin-plasma and EDTA-plasma (20-fold dilution), 40° C., 4 weeks): ~40%
- CA-125 preservation ([3]; serum, heparin-plasma and EDTA-plasma (20-fold dilution), 60° C., 4 weeks): ~30%

Substance: unencapsulated insulin: human recombinant insulin in solution without ZIF-8 encapsulation
- release of insulin from ZIF-8 by EDTA [4]: ~90%
- Mice weight Before [5]: 22.0 ± 0.2 g
- secondary structure (CD spectrum) ([6]; 1 week incubation at 40° C., versus pristine insulin): an increase in the β-sheet content along with the decrease in the α-helical content
- secondary structure (CD spectrum) ([6]; after mechanical agitation (48 h at 200 rpm)): from an overall rich helical to dominant β-sheet structure
- effect on blood glucose concentrations [1]: only moderately decreased glucose concentrations
